Measured values from patent publication US6261772.

Tests used:
[1] = target: T1, VP16-HA-Tap full length (Homo sapiens) (UniProt Q9UBU9); assay: one_hybrid
T1 sequence: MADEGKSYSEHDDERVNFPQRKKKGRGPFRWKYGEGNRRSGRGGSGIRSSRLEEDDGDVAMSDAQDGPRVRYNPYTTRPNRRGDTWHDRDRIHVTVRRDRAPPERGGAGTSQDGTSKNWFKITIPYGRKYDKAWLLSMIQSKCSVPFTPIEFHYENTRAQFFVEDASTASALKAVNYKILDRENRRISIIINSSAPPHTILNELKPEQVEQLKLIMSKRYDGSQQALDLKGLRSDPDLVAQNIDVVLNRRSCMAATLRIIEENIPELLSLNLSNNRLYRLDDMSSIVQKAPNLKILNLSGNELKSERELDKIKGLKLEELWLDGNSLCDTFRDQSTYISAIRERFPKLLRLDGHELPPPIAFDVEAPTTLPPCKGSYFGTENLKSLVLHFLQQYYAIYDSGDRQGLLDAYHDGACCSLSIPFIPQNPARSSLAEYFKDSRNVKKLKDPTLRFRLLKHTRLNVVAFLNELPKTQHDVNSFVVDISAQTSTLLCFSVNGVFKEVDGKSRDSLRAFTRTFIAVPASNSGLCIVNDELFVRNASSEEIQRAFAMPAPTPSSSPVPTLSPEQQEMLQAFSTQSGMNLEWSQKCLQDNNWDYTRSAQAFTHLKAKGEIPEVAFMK

[2] = target: T2, Tat-Tap full length (Homo sapiens) (UniProt Q9UBU9); assay: cell_activity; conditions: 293T
T2 sequence: T1 sequence

Substance | activity ([1]; yeast three-hybrid) [mOD/ml] | activity ([1]; yeast three-hybrid beta-gal, VP16 alone 11) [mOD/ml] | activity (fold activation) [2]
HIV-1 TAR | < 4 | – | –
MPMV CTE | – | 602 | 20
CTE antisense | < 4 | – | –
iron response element | < 4 | – | –
